Source: US20260014269A1 (NECTIN THERAPEUTICS, published 2026)

T1: Nectin-4 on MDA-MB-468 cells (human, UniProt Q96NY8 32-510)
T1 construct: whole, on cells; also called Nectin-4 (on-cell)
T1 sequence (looked up): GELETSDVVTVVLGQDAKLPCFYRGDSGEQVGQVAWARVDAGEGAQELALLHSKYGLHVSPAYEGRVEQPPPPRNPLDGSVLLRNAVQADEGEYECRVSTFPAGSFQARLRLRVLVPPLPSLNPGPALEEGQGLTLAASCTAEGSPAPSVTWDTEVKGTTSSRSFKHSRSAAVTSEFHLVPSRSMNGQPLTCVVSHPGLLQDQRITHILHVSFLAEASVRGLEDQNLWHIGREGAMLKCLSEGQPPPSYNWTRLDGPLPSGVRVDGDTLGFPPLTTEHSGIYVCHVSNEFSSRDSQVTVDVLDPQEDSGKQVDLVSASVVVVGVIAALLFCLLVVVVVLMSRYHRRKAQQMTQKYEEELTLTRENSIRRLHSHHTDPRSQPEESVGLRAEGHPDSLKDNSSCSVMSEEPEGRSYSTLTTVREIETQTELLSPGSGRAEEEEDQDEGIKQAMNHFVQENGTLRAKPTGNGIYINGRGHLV

T2: recombinant human Nectin-4 (Acro Biosystems) (human, UniProt Q96NY8 32-349)
T2 construct: Bought recombinant antigen used as analyte in SPR; also called PVRL4
T2 sequence (looked up): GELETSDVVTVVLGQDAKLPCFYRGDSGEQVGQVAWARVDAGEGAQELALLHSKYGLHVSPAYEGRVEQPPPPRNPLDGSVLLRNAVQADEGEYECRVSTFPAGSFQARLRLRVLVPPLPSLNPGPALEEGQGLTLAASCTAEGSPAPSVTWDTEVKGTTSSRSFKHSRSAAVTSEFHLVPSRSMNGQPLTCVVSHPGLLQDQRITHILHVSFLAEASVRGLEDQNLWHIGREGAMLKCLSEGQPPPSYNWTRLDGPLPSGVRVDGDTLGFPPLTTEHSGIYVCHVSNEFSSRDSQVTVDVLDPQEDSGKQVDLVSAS

T3: recombinant cynomolgus Nectin-4 (Acro Biosystems) (cynomolgus, UniProt A0A2K5WES1 32-349)
T3 construct: Bought recombinant antigen used as analyte in SPR; also called Cyno Nectin-4
T3 sequence: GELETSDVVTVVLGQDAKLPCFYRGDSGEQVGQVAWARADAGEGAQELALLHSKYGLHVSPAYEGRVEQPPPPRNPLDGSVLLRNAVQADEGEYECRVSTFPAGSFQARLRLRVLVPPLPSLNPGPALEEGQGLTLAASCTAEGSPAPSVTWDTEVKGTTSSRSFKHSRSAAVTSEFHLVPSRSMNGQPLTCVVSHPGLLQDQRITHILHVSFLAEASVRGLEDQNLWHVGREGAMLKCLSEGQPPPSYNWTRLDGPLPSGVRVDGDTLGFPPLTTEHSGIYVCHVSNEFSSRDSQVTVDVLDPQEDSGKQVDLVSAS


Columns and labels:
[1] = target: T1, Nectin-4 on MDA-MB-468 cells; experiment: flow cytometry staining of MDA-MB-468 cells, anti-human IgG Fab Alexa Fluor 647 detection
[2] = target: T1, Nectin-4 on MDA-MB-468 cells; experiment: flow cytometry on MDA-MB-468 cells, 3-fold dilutions from 3 ug/ml, detection with Alexa Fluor 647 Fab goat anti-human IgG (H+L); y axis % Bound
Description: Binding was evaluated on MDA-MB-468 cells. Briefly, 5*10+ cells per well were stained using either PADCEV or NTX1105 conjugated to MMAE at the same DAR as PADCEV. The ADCs were added at concentrations starting 3 μg/ml using 3-fold dilutions. […] After 72 hours, the assay was harvested and tumor cell killing was evaluated using CellTiter-Glo® 2.0 Cell Viability Assay-(Promega G9242).

[3] = target: T2, recombinant human Nectin-4 (Acro …); experiment: SPR, Biacore T200 single cycle kinetics at 25 C, IgG from culture supernatant, Nectin-4 as analyte
Description: (§1) In order to assess the binding of all of the variants to human or cynomolgus Nectin-4 antigen and select lead humanized IgGs with the closest affinity to the chimeric (VH0/Vκ0) antibody, single cycle kinetic was performed on supernatants from transfected cell cultures. Kinetic experiments were performed at 25° C. on a Biacore T200 running Biacore T200Control software V2.0.1 and Evaluation software V3.0 (Cytiva, Marlborough, USA). Single cycle kinetic data was obtained using recombinant human (Acro Biosystems, Newark, USA) or cynomolgus Nectin-4 (Acro Biosystems, Newark, USA) as the analyte injected at a flow rate of 40 μl/min to minimize any potential mass transfer effects. A four point, two-fold dilution range from 1.25 nM to 10 nM of antigen in running buffer was used without regeneration between each concentration. The association phases were monitored for 150 seconds for each of the four injections of increasing concentrations of antigen and a single dissociation phase was measured for 250 seconds following the last injection of antigen (in order to improve fit the dissociation was cropped to 175 seconds for human Nectin-4). Regeneration of the sensor chip surface was conducted using a single injection of 3 M MgCl₂. Based on relative KD from Biacore single cycle kinetics analysis on supernatants, six humanized variants (VH4/Vκ1, VH4/Vκ3, VH4/Vκ4, VH4/Vκ5, VH5/Vκ4 and VH5/Vκ5) were selected as lead IgGs for scaled-up production and purification.

[4] = target: T3, recombinant cynomolgus Nectin-4 (Acro …); experiment: as above
Description: as §1

| Molecule | EC50 [1] [nM] | fold stronger EC-50 than NTX1105 conjugated to MMAE [1] [fold] | EC50 (read off the curve) [2] [µg/mL] | Kd [3] [nM] | Kd [4] [nM] |
| --- | --- | --- | --- | --- | --- |
| Enfortumab-vedotin (PADCEV) (antibody) | 0.01 | 20 | – | – | – |
| NTX1105 (H4K5) ADC, conjugated to MMAE at the same DAR as PADCEV (antibody, V domains shown, also called NTX1105-MMAE; NTX1105-MC-VC-PAB-MMAE DAR4) VH: QVQLVQSGSELKKPGASVKVSCKASGYTFTSYYIHWVRQAPGQGLEWIGWIYPGNVNTKYNERFKGRVTITADKSTNTAYMELSSLRSEDTAVYYCARSNPYVMDYWGQGTSVTVSS VL: DIQMTQSPSTLSASVGDRVTITCRASQSVNNDVAWYQQKPGKAPKLLMYYASNRFTGVPDRFSGSGYGTDFTLTISSLQAEDVAVYFCQQAYRSPYTFGQGTKLEIK | – | – | ~0.01 | – | – |
| NTX1105 humanized variant VH4/Vκ4 (antibody, V domains shown, Humanized IgG) VH: QVQLVQSGSELKKPGASVKVSCKASGYTFTSYYIHWVRQAPGQGLEWIGWIYPGNVNTKYNERFKGRVTITADKSTNTAYMELSSLRSEDTAVYYCARSNPYVMDYWGQGTSVTVSS VL: DIQMTQSPSTLSASVGDRVTITCRASQSVNNDVAWYQQKPGKAPKLLMYYASNRFTGVPDRFSGSGYGTDFTLTISSLQAEDLAIYFCQQAYRSPYTFGQGTKLEIK | – | – | – | 18 | 21.3 |
| NTX1105 humanized variant VH4/Vκ1 (antibody, V domains shown, Humanized IgG) VH: QVQLVQSGSELKKPGASVKVSCKASGYTFTSYYIHWVRQAPGQGLEWIGWIYPGNVNTKYNERFKGRVTITADKSTNTAYMELSSLRSEDTAVYYCARSNPYVMDYWGQGTSVTVSS VL: SIVMTQSPSFLLASAGDRVTITCKASQSVNNDVAWYQQKPGLAPELLMYYASNRFTGVPDRFTGSGYGTDFTLTISSLQAEDLAIYFCQQAYRSPYTFGQGTKLEIK | – | – | – | 15.4 | 19.3 |
| NTX1105 (VH0/Vκ0) parental chimeric anti-Nectin-4 antibody, clone-11 (VH0/Vκ0)-hIgG1 (antibody, V domains shown, Tested from supernatants of transfected cell cultures; also called chimeric antibody; parental mAb) VH: QVQLQQSGPELVKPETSVKISCKASGYTFTSYYIHWVKQRPGQGLEWIGWIYPGNVNTKYNERFKGKATLTADKSSNTAHMQLTSLTSEDSAVYFCARSNPYVMDYWGQGTSVTVSS VL: SIVMTQTPKFLLVSAGDRVTITCKASQSVNNDVAWYQQKPGLSPELLMYYASNRFTGVPDRFTGSGYGTDFTFTISSVQAEDLAIYFCQQAYRSPYTFGGGTKLEIQR | – | – | – | 10.9 | 12.1 |

Further lines, results first:

| EC50 [1] [nM] | fold stronger EC-50 than NTX1105 conjugated to MMAE [1] [fold] | EC50 (read off the curve) [2] [µg/mL] | Kd [3] [nM] | Kd [4] [nM] | Molecule |
| --- | --- | --- | --- | --- | --- |
| – | – | – | 15.5 | 19.4 | NTX1105 humanized variant VH4/Vκ3 (antibody, V domains shown, Humanized IgG) VH: QVQLVQSGSELKKPGASVKVSCKASGYTFTSYYIHWVRQAPGQGLEWIGWIYPGNVNTKYNERFKGRVTITADKSTNTAYMELSSLRSEDTAVYYCARSNPYVMDYWGQGTSVTVSS VL: DIQMTQSPSTLSASVGDRVTITCKASQSVNNDVAWYQQKPGKAPKLLMYYASNRFTGVPDRFSGSGYGTDFTLTISSLQAEDLAIYFCQQAYRSPYTFGQGTKLEIK |
| – | – | – | 11.5 | 12.7 | NTX1105 humanized variant VH5/Vκ5 (antibody, V domains shown, Humanized IgG; also called H5K5) VH: QVQLVQSGSELKKPGASVKVSCKASGYTFTSYYIHWVRQAPGQGLEWMGWIYPGNVNTKYNERFQGRVTITADKSTSTAYMELSSLRSEDTAVYYCARSNPYVMDYWGQGTSVTVSS VL: DIQMTQSPSTLSASVGDRVTITCRASQSVNNDVAWYQQKPGKAPKLLMYYASNRFTGVPDRFSGSGYGTDFTLTISSLQAEDVAVYFCQQAYRSPYTFGQGTKLEIK |
| – | – | – | 12.2 | 13.7 | NTX1105 humanized variant VH4/Vκ5 (antibody, V domains shown, also called NTX1105 (H4/k5); H4K5) VH: QVQLVQSGSELKKPGASVKVSCKASGYTFTSYYIHWVRQAPGQGLEWIGWIYPGNVNTKYNERFKGRVTITADKSTNTAYMELSSLRSEDTAVYYCARSNPYVMDYWGQGTSVTVSS VL: DIQMTQSPSTLSASVGDRVTITCRASQSVNNDVAWYQQKPGKAPKLLMYYASNRFTGVPDRFSGSGYGTDFTLTISSLQAEDVAVYFCQQAYRSPYTFGQGTKLEIK |
| – | – | – | 17.7 | 19.2 | NTX1105 humanized variant VH5/Vκ4 (antibody, V domains shown, Humanized IgG) VH: QVQLVQSGSELKKPGASVKVSCKASGYTFTSYYIHWVRQAPGQGLEWMGWIYPGNVNTKYNERFQGRVTITADKSTSTAYMELSSLRSEDTAVYYCARSNPYVMDYWGQGTSVTVSS VL: DIQMTQSPSTLSASVGDRVTITCRASQSVNNDVAWYQQKPGKAPKLLMYYASNRFTGVPDRFSGSGYGTDFTLTISSLQAEDLAIYFCQQAYRSPYTFGQGTKLEIK |
